In this experiment the target is NY-ESO-1 peptide presented in the stimulated PBMC culture. The experiment is described as follows: cell-based or functional assay.

Substance NY-ESO TCR (clone 1G4) gave a percent of CD8+ T cells CD137+/NGFR+ after antigen stimulation (% of CD8+ T cells) of 0.69, a percent of CD8+ T cells IFNγ+/NGFR+ after antigen stimulation (% of CD8+ T cells) of 0.47 and a percent of CD8+ T cells TNFα+/NGFR+ after antigen stimulation (% of CD8+ T cells) of 0.41.

The record behind these values is patent US20220308061A1.
